From IntAct's records for PubMed 29656893 come the findings set out here.

Sequences and labels used below:
B1: Shieldin complex subunit 3 (Homo sapiens), Q6ZNX1 (parent)
chain: MTTEVILHYRPCESDPTQLPKIAEKAIQDFPTRPLSRFIPWFPYDGSKLPLRPKRSPPVISEEAAEDVKQYLTISEHDAKSHSYDCTVDLLEFQPSLKKQHLTWSHTLKEQTNSGNLGKQSEKGKQHKRRSWSISLPSNNCTKNVSPLSKKLQDSLKALNLHSLYRARWTIEHTICNSQTLEDIWTKLNQIIRHNELPSCNATIQRHLGQIWVFCDIMYCEYVGSLLKGRLALTGKINLFVHKYGVIFSM

The variants in the assay derive from B1. Particulars: with md2l2_human MAD2L2, Q9UI95.
Sequence of md2l2_human MAD2L2, Q9UI95 (Q9UI95 whole entry): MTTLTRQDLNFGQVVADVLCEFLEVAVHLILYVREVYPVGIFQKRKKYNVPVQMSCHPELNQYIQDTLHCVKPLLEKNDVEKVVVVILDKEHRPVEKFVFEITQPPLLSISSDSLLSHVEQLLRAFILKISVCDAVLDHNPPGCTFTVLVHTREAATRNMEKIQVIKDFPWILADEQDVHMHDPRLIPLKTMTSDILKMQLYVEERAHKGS
P53A;P58A: the “effect of a mutation on the interaction” value is on record as “disrupting interaction strength”.
